The values that follow come from paper PMC9684487, “Human antibody recognition and neutralization mode on the NTD and RBD domains of SARS-CoV-2 spike protein” (Scientific Reports, 2022).

What all share (settings): both partners purified
Test [1] concerns the target T1, recombinant S ECD protein (aa 13–1208) of SARS-CoV-2 (SARS-CoV-2, UniProt P0DTC2).
T1 construct: also called S protein; extracellular domain of the S protein
Description: ELISA.

Test [2] has as its target T2, S1 (aa 13–685) of the SARS-CoV-2 S protein (SARS-CoV-2, wild type (Wuhan-Hu-1 …, UniProt P0DTC2)).
T2 construct: also called subunit 1
The test can be described thus: ELISA.

The target of test [3] is NTD + RBD (aa 13–541) of the SARS-CoV-2 S protein (SARS-CoV-2, wild type (Wuhan-Hu-1 …, UniProt P0DTC2)). Description: ELISA. On the technique in general: In an ELISA, binding on a coated surface is turned into a signal by an enzyme label.
In test [4] the target is T3, SARS-CoV-2 S protein (ECD, His and Flag Tag) (GenScript) (SARS-CoV-2, wild type (Wuhan-Hu-1 …, UniProt P0DTC2)).
T3 construct: source: bought: GenScript
Description: SPR. For orientation: Surface plasmon resonance follows binding to a sensor surface in real time, without labels.

B1: 7G7/κ (antibody, V domains shown)
VH: QVQLVESGGGVVQPGRSLRLSCIASGFTFRNYAMYWVRQAPGKGLEWVAVIWYDGSNKFYTDSVKGRFTISRDNSKNSLYLQMNSLRAEDTAVYFCARDQGFGDNYYYYGMDVWGQGTTVTVSS
VL: SYELTQPPSVSVSPGQTARISCSGDALPKEYAYWYQQKPGQAPVLVIYKDSERPSGIPERFSGSSSGTTVTLTISGVQAEDEADYYCQLADSSMHYVVFGGGTKLTVL
notes: also called 7G7-IgG1κ; 7G7/κ (IgG1/Igκ); source: Expi293F, cotransfected with IgH and IgL vectors, purified (HiTrap Protein G)
For B1, the binding result in test [1], in test [2] and in test [3] was “binds” throughout.

B2: 7G7/λ (antibody, V domains shown)
VH: B1 VH
VL: B1 VL
notes: also called 7G7 (7G7/λ); IgG1/Igλ2; source: Expi293F, cotransfected with IgH and IgL vectors, purified (HiTrap Protein G)
With B2, in test [1], the binding result is “binds”.

B3: NIBIC-71 (antibody, V domains shown)
VH: EVQLVESGGGLIQPGGSLRLSCEASGLIVSSNYMTWVRQAPGKGLEWVSVIYSGGSTFYADSVKGRFTVSRDNSKNTLYLQMNNLSPEDTAVYYCARDLGPYGVDVWGQGTTVTVSS
VL: AIQLTQSPSSLSASVGDRVTITCRASQGISSYLAWYQQTPGKAPKLLIYAASTLQSGVPSRFSGSGSGTDFTLTISSLQPEDFATYYCQQLNSYPPFTFGPGTKVDIK
notes: also called recombinant mAb NIBIC-71
As for B3, in test [4], binding was characterised by a dissociation constant (Kd) of 1.33 nM, the koff (commonly a measure of how fast the partners let go of each other) is 6.35e-05 s⁻¹ and the on-rate constant (kon) (commonly a measure of how fast the partners come together) came out at 47700 M⁻¹ s⁻¹.
